Data taken from PMC3326337.

Test system: Streptavidin
Experiment: DRaCALA
Conditions: 5'-biotin on one strand

For 3x ICAP PCR probe with biotin, which Kd is on record?
Its Kd is 0.4 nM.
